Results: US20130315910A1 (Xencor, published 2013)

T1: mFcγRIIb (Mus musculus, UniProt P08101)
T1 construct: extracellular region, C-terminal His- and GST-tag; also called mouse FcγRII
T1 sequence (receptor extracellular region, looked up): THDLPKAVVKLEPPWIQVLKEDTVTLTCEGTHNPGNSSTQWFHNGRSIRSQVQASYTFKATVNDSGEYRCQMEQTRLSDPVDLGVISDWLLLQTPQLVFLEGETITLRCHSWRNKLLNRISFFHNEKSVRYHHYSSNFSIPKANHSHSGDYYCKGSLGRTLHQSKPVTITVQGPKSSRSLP

T2: mFcγRIV
T2 construct: also called mouse FcγRIV; not shown: C-terminal His and GST tags (named only on our card)
T2 chain: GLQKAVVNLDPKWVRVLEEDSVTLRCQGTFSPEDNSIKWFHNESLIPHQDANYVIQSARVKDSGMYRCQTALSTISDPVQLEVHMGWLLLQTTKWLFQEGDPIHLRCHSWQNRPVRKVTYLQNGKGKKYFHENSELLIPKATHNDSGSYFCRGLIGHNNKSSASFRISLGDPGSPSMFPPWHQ

T3: cynoFcγRIIb (Macaca fascicularis, UniProt A0A140HDP4)
T3 construct: extracellular region, C-terminal His- and GST-tag; also called cynomolgus monkey FcγRIIb
T3 sequence (receptor extracellular region): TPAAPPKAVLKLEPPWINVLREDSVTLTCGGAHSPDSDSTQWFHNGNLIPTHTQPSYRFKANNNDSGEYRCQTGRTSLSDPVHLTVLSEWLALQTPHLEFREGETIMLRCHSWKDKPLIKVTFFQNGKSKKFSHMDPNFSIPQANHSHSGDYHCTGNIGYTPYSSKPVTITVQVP

T4: human FcγRIIa (131H), His- and GST-tagged (human, UniProt P12318 34-217)
T4 construct: also called H131 FcγRIIa; HIIa; not shown: 6xHis and GST tags of the pTT5 vector
T4 sequence (looked up): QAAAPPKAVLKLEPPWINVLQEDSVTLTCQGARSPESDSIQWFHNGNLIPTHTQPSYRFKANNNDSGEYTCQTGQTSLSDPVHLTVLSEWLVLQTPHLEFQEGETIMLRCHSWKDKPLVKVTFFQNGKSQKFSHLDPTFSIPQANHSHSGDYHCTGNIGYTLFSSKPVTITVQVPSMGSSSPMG

T5: human FcγRIIb receptor protein (R&D Systems) (human, UniProt P31994 46-217)
T5 construct: Bought protein injected over captured antibody in Biacore; also called CD32b
T5 sequence (looked up): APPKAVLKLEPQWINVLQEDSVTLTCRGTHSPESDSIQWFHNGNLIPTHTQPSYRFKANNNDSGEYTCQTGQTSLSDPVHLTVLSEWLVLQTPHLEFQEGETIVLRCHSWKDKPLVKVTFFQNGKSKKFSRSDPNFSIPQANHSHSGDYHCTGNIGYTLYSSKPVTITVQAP

T6: human FcγRIIa (131R), His- and GST-tagged (human, UniProt P12318 34-217)
T6 construct: Expressed in HEK293T cells, purified by nickel chromatography; also called R131 FcγRIIa; not shown: 6xHis and GST tags of the pTT5 vector
T6 sequence (looked up): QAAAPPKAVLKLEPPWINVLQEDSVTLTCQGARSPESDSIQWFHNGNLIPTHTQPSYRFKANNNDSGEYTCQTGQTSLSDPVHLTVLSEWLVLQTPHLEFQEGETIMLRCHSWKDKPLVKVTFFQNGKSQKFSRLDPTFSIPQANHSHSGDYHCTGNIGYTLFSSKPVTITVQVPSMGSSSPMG


Experiments:
Test in all cases: SPR
[1] = biological target: T1, mFcγRIIb
[2] = biological target: T2, mFcγRIV
[3] = biological target: T3, cynoFcγRIIb
[4] = biological target: T7, cynoFcγRIIIa (Macaca fascicularis, UniProt Q8SPW2)
T7 construct: extracellular region, C-terminal His- and GST-tag; also called cynomolgus monkey FcγRIIIa
T7 sequence (Q8SPW2 17-208): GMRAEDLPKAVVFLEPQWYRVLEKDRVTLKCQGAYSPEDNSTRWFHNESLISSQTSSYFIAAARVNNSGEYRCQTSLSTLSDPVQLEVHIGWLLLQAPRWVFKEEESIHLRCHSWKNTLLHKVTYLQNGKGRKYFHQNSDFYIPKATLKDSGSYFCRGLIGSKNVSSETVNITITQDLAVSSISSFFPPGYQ

[5] = biological target: T8, human FcγRIIIa (158V), His- and GST-tagged (human, UniProt P08637 17-208)
T8 construct: also called V158 FcγRIIIa; VIIIa; not shown: 6xHis and GST tags of the pTT5 vector
T8 sequence (P08637 17-208 F176V): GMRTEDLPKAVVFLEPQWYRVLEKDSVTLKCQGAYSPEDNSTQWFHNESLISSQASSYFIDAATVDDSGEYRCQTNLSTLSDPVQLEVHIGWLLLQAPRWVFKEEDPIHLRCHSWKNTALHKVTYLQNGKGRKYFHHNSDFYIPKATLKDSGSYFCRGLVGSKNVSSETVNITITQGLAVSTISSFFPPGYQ

[6] = biological target: T4, human FcγRIIa (131H), His- and …
[7] = biological target: T5, human FcγRIIb receptor protein (R&D …)
[8] = biological target: T6, human FcγRIIa (131R), His- and …
[9] = biological target: T9, human FcγRI receptor protein (R&D Systems) (human, UniProt P12314 16-288)
T9 construct: also called soluble FcγRI; solFcγRI
T9 sequence (P12314 16-288 limits assumed): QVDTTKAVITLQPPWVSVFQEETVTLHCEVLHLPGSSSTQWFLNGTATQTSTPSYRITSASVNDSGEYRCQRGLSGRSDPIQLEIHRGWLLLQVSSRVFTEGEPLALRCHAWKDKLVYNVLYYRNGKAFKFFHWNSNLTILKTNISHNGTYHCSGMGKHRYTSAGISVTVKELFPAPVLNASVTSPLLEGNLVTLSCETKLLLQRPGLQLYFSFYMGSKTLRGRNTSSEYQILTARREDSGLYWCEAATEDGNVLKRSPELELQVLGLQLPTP

Binder | Fold vs WT IgG1 (Kd) [1] [fold] | Fold vs WT IgG1 (off-rate) [1] [fold] | Fold vs WT IgG1 (Kd) [2] [fold] | Fold vs WT IgG1 (off-rate) [2] [fold] | Fold vs WT IgG1 (Kd) [3] [fold] | Fold vs WT IgG1 (off-rate) [3] [fold] | Fold vs WT IgG1 (Kd) [4] [fold] | Fold vs WT IgG1 (off-rate) [4] [fold] | Fold vs WT IgG1 [5] [fold] | Kd [5] [nM] | Fold vs WT IgG1 [6] [fold] | Kd [6] [nM] | Fold vs WT IgG1 [7] [fold] | Kd [7] [nM] | Fold vs WT IgG1 [8] [fold] | Kd [8] [nM] | Fold vs WT IgG1 [9] [fold] | Kd [9] [nM] | binding result [7] | binding result [8]
A327D (antibody, human IgG1, kappa, HuAM4G7 anti-CD19 IgG1 (m1) with this Fc substitution, EU index; copies: 2 + 2) heavy: not shown light: DIVMTQSPATLSLSPGERATLSCRSSKSLQNVNGNTYLYWFQQKPGQSPQLLIYRMSNLNSGVPDRFSGSGSGTEFTLTISSLEPEDFAVYYCMQHLEYPITFGAGTKLEIKRTVAAPSVFIFPPSDEQLKSGTASVVCLLNNFYPREAKVQWKVDNALQSGNSQESVTEQDSKDSTYSLSSTLTLSKADYEKHKVYACEVTHQGLSSPVTKSFNRGEC | 1.86 | 4.1 | 0.315 | 0.876 | 1.16 | 1.15 | 0.783 | 0.515 | 0.398 | 481 | 0.733 | 882 | 1.33 | 1100 | 1.6 | 536 | 2.06 | 0.16 |  | 
H268E (antibody, human IgG1, kappa, HuAM4G7 anti-CD19 IgG1 (m1) with this Fc substitution, EU index; copies: 2 + 2) heavy: not shown light: DIVMTQSPATLSLSPGERATLSCRSSKSLQNVNGNTYLYWFQQKPGQSPQLLIYRMSNLNSGVPDRFSGSGSGTEFTLTISSLEPEDFAVYYCMQHLEYPITFGAGTKLEIKRTVAAPSVFIFPPSDEQLKSGTASVVCLLNNFYPREAKVQWKVDNALQSGNSQESVTEQDSKDSTYSLSSTLTLSKADYEKHKVYACEVTHQGLSSPVTKSFNRGEC |  | 2.44 |  | 1.42 |  | 2.23 |  | 1.51 | 2.19 | 87.5 | 1.43 | 453 | 2.62 | 560 | 3.19 | 269 | 2.74 | 0.12 |  | 
S267E/L328I (antibody, human IgG1, kappa, HuAM4G7 anti-CD19 IgG1 (m1) with these Fc substitutions, EU index; copies: 2 + 2) heavy: not shown light: DIVMTQSPATLSLSPGERATLSCRSSKSLQNVNGNTYLYWFQQKPGQSPQLLIYRMSNLNSGVPDRFSGSGSGTEFTLTISSLEPEDFAVYYCMQHLEYPITFGAGTKLEIKRTVAAPSVFIFPPSDEQLKSGTASVVCLLNNFYPREAKVQWKVDNALQSGNSQESVTEQDSKDSTYSLSSTLTLSKADYEKHKVYACEVTHQGLSSPVTKSFNRGEC |  | 2.1 |  | 0.588 |  | 0.831 |  | 0.437 |  |  |  |  | 53.4 | 27.5 | 74 | 11.6 |  |  |  | 
S298Q (antibody, human IgG1, kappa, HuAM4G7 anti-CD19 IgG1 (m1) with this Fc substitution, EU index; copies: 2 + 2) heavy: not shown light: DIVMTQSPATLSLSPGERATLSCRSSKSLQNVNGNTYLYWFQQKPGQSPQLLIYRMSNLNSGVPDRFSGSGSGTEFTLTISSLEPEDFAVYYCMQHLEYPITFGAGTKLEIKRTVAAPSVFIFPPSDEQLKSGTASVVCLLNNFYPREAKVQWKVDNALQSGNSQESVTEQDSKDSTYSLSSTLTLSKADYEKHKVYACEVTHQGLSSPVTKSFNRGEC |  | 1.41 |  | 0.291 |  | 0.714 |  | 0.271 |  |  |  |  |  |  |  |  |  |  | no binding | no binding
S239E (antibody, human IgG1, kappa, HuAM4G7 anti-CD19 IgG1 (m1) with this Fc substitution, EU index; copies: 2 + 2) heavy: not shown light: DIVMTQSPATLSLSPGERATLSCRSSKSLQNVNGNTYLYWFQQKPGQSPQLLIYRMSNLNSGVPDRFSGSGSGTEFTLTISSLEPEDFAVYYCMQHLEYPITFGAGTKLEIKRTVAAPSVFIFPPSDEQLKSGTASVVCLLNNFYPREAKVQWKVDNALQSGNSQESVTEQDSKDSTYSLSSTLTLSKADYEKHKVYACEVTHQGLSSPVTKSFNRGEC |  | 3.1 |  | 1.93 |  | 1.25 |  | 2.26 | 3.49 | 54.8 | 0.49 | 1320 | 0.803 | 1830 | 0.688 | 1250 | 1.65 | 0.2 |  | 
V266I (antibody, human IgG1, kappa, HuAM4G7 anti-CD19 IgG1 (m1) with this Fc substitution, EU index; copies: 2 + 2) heavy: not shown light: DIVMTQSPATLSLSPGERATLSCRSSKSLQNVNGNTYLYWFQQKPGQSPQLLIYRMSNLNSGVPDRFSGSGSGTEFTLTISSLEPEDFAVYYCMQHLEYPITFGAGTKLEIKRTVAAPSVFIFPPSDEQLKSGTASVVCLLNNFYPREAKVQWKVDNALQSGNSQESVTEQDSKDSTYSLSSTLTLSKADYEKHKVYACEVTHQGLSSPVTKSFNRGEC |  | 1.42 |  | 1.19 |  | 0.826 |  | 0.979 |  |  |  |  |  |  |  |  |  |  | no binding | no binding
H268D (antibody, human IgG1, kappa, HuAM4G7 anti-CD19 IgG1 (m1) with this Fc substitution, EU index; copies: 2 + 2) heavy: not shown light: DIVMTQSPATLSLSPGERATLSCRSSKSLQNVNGNTYLYWFQQKPGQSPQLLIYRMSNLNSGVPDRFSGSGSGTEFTLTISSLEPEDFAVYYCMQHLEYPITFGAGTKLEIKRTVAAPSVFIFPPSDEQLKSGTASVVCLLNNFYPREAKVQWKVDNALQSGNSQESVTEQDSKDSTYSLSSTLTLSKADYEKHKVYACEVTHQGLSSPVTKSFNRGEC | 1.11 | 2.63 | 0.47 | 1.45 | 1.48 | 3.94 | 4.24 | 1.65 | 3.08 | 62.2 | 1.89 | 342 | 3.06 | 480 | 4.19 | 205 | 2.35 | 0.14 |  | 
L235Y (antibody, human IgG1, kappa, HuAM4G7 anti-CD19 IgG1 (m1) with this Fc substitution, EU index; copies: 2 + 2) heavy: not shown light: DIVMTQSPATLSLSPGERATLSCRSSKSLQNVNGNTYLYWFQQKPGQSPQLLIYRMSNLNSGVPDRFSGSGSGTEFTLTISSLEPEDFAVYYCMQHLEYPITFGAGTKLEIKRTVAAPSVFIFPPSDEQLKSGTASVVCLLNNFYPREAKVQWKVDNALQSGNSQESVTEQDSKDSTYSLSSTLTLSKADYEKHKVYACEVTHQGLSSPVTKSFNRGEC |  | 1.02 |  | 0.507 |  | 0.92 |  | 0.535 | 0.504 | 380 | 1.35 | 479 | 1.05 | 1400 | 1.28 | 669 | 0.00232 | 142 |  | 
